# From article PMC9897667, “Identification of procathepsin L (pCTS-L)–neutralizing monoclonal antibodies to treat potentially lethal sepsis” (Science Advances, 2023)
# How the values were obtained:
# Details in all cases: both partners purified
# [1] = target: T1, extracellular domain of human RAGE (residues 1 to 344) (human, UniProt Q15109 23-344); assay: SPR; OpenSPR (Nicoya); TLR4 (residues 1 to 631) or RAGE extracellular domain (residues 1 to 344) immobilised on NTA sensor chip; pCTS-L applied as analyte at different concentrations; representative Kd
# T1 construct: signal peptide in the construct; receptor for advanced glycation end products, human, extracellular domain, residues 1 to 344; also called receptor for advanced glycation end products; recombinant RAGE; source: bought: Sino Biological Inc
# T1 sequence (Q15109 23-344): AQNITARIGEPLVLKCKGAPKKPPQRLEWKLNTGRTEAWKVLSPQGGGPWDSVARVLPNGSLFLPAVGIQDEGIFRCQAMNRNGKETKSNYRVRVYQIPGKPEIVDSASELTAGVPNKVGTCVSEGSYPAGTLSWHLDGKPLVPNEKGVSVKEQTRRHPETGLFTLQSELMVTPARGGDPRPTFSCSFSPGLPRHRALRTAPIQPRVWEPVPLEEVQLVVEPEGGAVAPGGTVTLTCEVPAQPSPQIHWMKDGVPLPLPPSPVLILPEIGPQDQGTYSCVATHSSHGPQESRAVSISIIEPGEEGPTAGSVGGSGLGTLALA
# [2] = target: T2, human TLR4 (ECD-His Tag, residues 1 to 631) (human, UniProt O00206 24-631); assay: as above
# T2 construct: signal peptide in the construct; Toll-like receptor 4, human, extracellular domain, residues 1 to 631; also called Toll-like receptor 4; recombinant TLR4; source: bought: Sino Biological Inc
# T2 sequence (O00206 24-631): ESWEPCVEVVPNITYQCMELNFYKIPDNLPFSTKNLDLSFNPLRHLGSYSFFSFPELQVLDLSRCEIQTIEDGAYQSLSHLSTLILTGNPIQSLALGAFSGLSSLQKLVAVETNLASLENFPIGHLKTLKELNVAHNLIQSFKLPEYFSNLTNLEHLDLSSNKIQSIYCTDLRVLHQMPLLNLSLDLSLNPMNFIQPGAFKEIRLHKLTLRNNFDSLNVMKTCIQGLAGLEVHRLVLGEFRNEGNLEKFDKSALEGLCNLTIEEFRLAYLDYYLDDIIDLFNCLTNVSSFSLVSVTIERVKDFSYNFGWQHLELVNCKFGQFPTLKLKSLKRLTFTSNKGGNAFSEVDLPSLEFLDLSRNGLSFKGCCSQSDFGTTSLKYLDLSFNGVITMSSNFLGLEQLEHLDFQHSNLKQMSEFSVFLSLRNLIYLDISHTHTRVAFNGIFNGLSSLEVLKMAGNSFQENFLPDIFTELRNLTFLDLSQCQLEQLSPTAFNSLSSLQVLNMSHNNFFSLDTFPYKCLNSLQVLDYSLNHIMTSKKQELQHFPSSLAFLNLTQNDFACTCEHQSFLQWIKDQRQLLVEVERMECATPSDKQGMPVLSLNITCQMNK
# [3] = target: T1, extracellular domain of human RAGE …; assay: SPR; OpenSPR, series of Fig. 10A; pCTS-L immobilised on NTA sensor chip; TLR4 or RAGE as analyte; reference values without mAb20 (not told whether with c-mAb preincubated or with no antibody)
# [4] = target: T2, human TLR4 (ECD-His Tag, residues 1 to …); assay: as above
# [5] = target: T1, extracellular domain of human RAGE …; assay: SPR; OpenSPR (Nicoya); human pCTS-L immobilised on NTA sensor chip; human TLR4 or RAGE applied as analyte at various concentrations; Kd estimated with TraceDrawer
# [6] = target: T2, human TLR4 (ECD-His Tag, residues 1 to …); assay: as above
binder,measurement,setting,value
"recombinant human procathepsin L (pCTS-L) (natural protein, UniProt P07711 18-333, looked up, procathepsin L (pCTS-L), human, recombinant; A HEK293-made pCTS-L is named only for stimulating PBMCs; also called proCTS-L; human pCTS-L; source: recombinant, highly purified) TLTFDHSLEAQWTKWKAMHNRLYGMNEEGWRRAVWEKNMKMIELHNQEYREGKHSFTMAMNAFGDMTSEEFRQVMNGFQNRKPRKGKVFQEPLFYEAPRSVDWREKGYVTPVKNQGQCGSCWAFSATGALEGQMFRKTGRLISLSEQNLVDCSGPQGNEGCNGGLMDYAFQYVQDNGGLDSEESYPYEATEESCKYNPKYSVANDTGFVDIPKQEKALMKAVATVGPISVAIDAGHESFLFYKEGIYFEPDCSSEDMDHGVLVVGYGFESTESDNNKYWLVKNSWGEEWGMGGYVKMAKDRRNHCGIASAASYPTV",Kd,[1],3 nM
same,Kd,[2],64.4 nM
same,Kd,[3],3.1 ± 0.4 nM
same,Kd,[4],20.3 ± 2.3 nM
same,Kd,[5],3.5 nM
same,Kd,[6],20.2 nM
